Experimental data as given in PMC5724930 (Biochemistry, 2017).

Target: the molecule itself
Test: SEC; mixtures of the purified proteins; details in the Supporting Information

Protein | stoichiometry N
PanD(K119A) (enzyme, E. coli, UniProt P0A790 1-126, looked up) MIRTMLQGKLHRVKVTHADLHYEGSCAIDQDFLDAAGILENEAIDIWNVTNGKRFSTYAIAAERGSRIISVNGAAAHCASVGDIVIIASFVTMPDEEARTWRPNVAYFEGDNEMKRTAAAIPVQVA | 4
aspartate α-decarboxylase (PanD), wild type (from pET28apanD, for SEC) (enzyme, E. coli, UniProt P0A790 1-126, looked up) MIRTMLQGKLHRVKVTHADLHYEGSCAIDQDFLDAAGILENEAIDIWNVTNGKRFSTYAIAAERGSRIISVNGAAAHCASVGDIVIIASFVTMPDEEARTWRPNVAYFEGDNEMKRTAKAIPVQVA | 4
